Test results published in patent US20230129812A1 (ACCELERON PHARMA, published 2023).
Substitutions are numbered along the chain they refer to. Names may count otherwise.

Legend:
[1] = molecular target: T1, GDF11 (UniProt O95390 299-407); test: SPR (Biacore); ligand coupled, receptor flowed over (as reported in WO2006/012627)
T1 construct: also called BMP11
T1 sequence (looked up): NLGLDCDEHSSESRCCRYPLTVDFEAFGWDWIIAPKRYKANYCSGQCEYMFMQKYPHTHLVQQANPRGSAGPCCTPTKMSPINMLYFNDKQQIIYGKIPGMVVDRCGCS
Source text: (§1) Other variants have been generated and tested, as reported in WO2006/012627 (incorporated herein by reference in its entirety). See, e.g., pp. 59-60, using ligands coupled to the device and flowing receptor over the coupled ligands. […] Table 11 showing data with respect to these variants is reproduced below: […]

[2] = molecular target: T2, activin A (UniProt P08476 311-426); test: as above
T2 construct: also called ActA
T2 sequence (looked up): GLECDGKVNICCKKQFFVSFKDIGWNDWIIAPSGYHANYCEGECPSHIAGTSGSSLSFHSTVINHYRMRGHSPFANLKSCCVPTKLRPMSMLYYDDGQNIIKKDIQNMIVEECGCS
Source text: as §1

[3] = molecular target: T1, GDF11; test: SPR (Biacore); ligand coupled, receptor flowed over (as reported in WO2006/012627); -- means <1/5 WT binding
Source text: as §1

[4] = molecular target: T1, GDF11; test: SPR (Biacore); receptor-Fc captured by anti-hFc antibody, ligand injected
Method: (§2) Binding of certain ActRIIB-Fc proteins and ActRIIB variant Fc fusion polypeptides to ligands was tested in a Biacore™ assay.
(§3) The ActRIIB-Fc variants or wild-type protein were captured onto the system using an anti-hFc antibody. Ligands were injected and flowed over the captured receptor proteins.

[5] = molecular target: T2, activin A; test: as above
Method: as §2, §3

[6] = molecular target: T3, GDF8 (UniProt O14793 267-375); test: as above
T3 construct: also called myostatin
T3 sequence (looked up): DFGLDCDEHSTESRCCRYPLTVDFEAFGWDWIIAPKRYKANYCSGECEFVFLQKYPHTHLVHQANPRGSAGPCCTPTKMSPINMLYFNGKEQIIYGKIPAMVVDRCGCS
Method: as §2, §3

B1: Soluble ActRIIB-Fc WT (64A) (Fc fusion, UniProt Q13705 19-119, looked up, not shown: a dimerising Fc or GST)
chain: SGRGEAETRECIYYNANWELERTNQSGLERCEGEQDKRLHCYASWANSSGTIELVKKGCWLDDFNCYDRQECVATEENPQVYFCCCEGNFCNERFTHLPEA
notes: Whole entry named
Work on B1 yielded a Kd [1] of 260 nM and a Kd [2] of 180 nM.

B2: Soluble ActRIIB-Fc D80A (Table 11) (Fc fusion, UniProt Q13705 19-119, looked up, not shown: a dimerising Fc or GST)
chain: B1 chain with D62A
B2: no binding [1]; no binding [2].

B3: Soluble ActRIIB-Fc D80F (Table 11) (Fc fusion, UniProt Q13705 19-119, looked up, not shown: a dimerising Fc or GST)
chain: B1 chain with D62F
B3: no binding [1]; no binding [2].

B4: Soluble ActRIIB-Fc D80G (Table 11) (Fc fusion, UniProt Q13705 19-119, looked up, not shown: a dimerising Fc or GST)
chain: B1 chain with D62G
B4: no binding [1]; no binding [2].

B5: Soluble ActRIIB-Fc D80I (Table 11) (Fc fusion, UniProt Q13705 19-119, looked up, not shown: a dimerising Fc or GST)
chain: B1 chain with D62I
In the case of B5, the binding result [2] is reported as “no binding” and the “binding relative to WT” value [3] is reported as under 0.2 fold.

B6: Soluble ActRIIB-Fc D80K (Table 11) (Fc fusion, UniProt Q13705 19-119, looked up, not shown: a dimerising Fc or GST)
chain: B1 chain with D62K
B6: no binding [1]; no binding [2].

B7: Soluble ActRIIB-Fc D80M (Table 11) (Fc fusion, UniProt Q13705 19-119, looked up, not shown: a dimerising Fc or GST)
chain: B1 chain with D62M
B7: no binding [1]; no binding [2].

B8: Soluble ActRIIB-Fc D80N (Table 11) (Fc fusion, UniProt Q13705 19-119, looked up, not shown: a dimerising Fc or GST)
chain: B1 chain with D62N
B8: no binding [1]; no binding [2].

B9: Soluble ActRIIB-Fc D80R (Table 11) (Fc fusion, UniProt Q13705 19-119, looked up, not shown: a dimerising Fc or GST)
chain: B1 chain with D62R
B9: no binding [1]; no binding [2].

B10: Soluble ActRIIB-Fc E37A (Table 11) (Fc fusion, UniProt Q13705 19-119, looked up, not shown: a dimerising Fc or GST)
chain: B1 chain with E19A
B10: no binding [1]; no binding [2].

B11: Soluble ActRIIB-Fc K55A (Table 11) (Fc fusion, UniProt Q13705 19-119, looked up, not shown: a dimerising Fc or GST)
chain: B1 chain with K37A
B11: no binding [1].

B12: Soluble ActRIIB-Fc K74A (Table 11) (Fc fusion, UniProt Q13705 19-119, looked up, not shown: a dimerising Fc or GST)
chain: B1 chain with K56A
B12 gave a Kd [1] of 5.3 nM and a Kd [2] of 4.35 nM.

B13: Soluble ActRIIB-Fc K74F (Table 11) (Fc fusion, UniProt Q13705 19-119, looked up, not shown: a dimerising Fc or GST)
chain: B1 chain with K56F
In the case of B13, the binding result [2] is reported as “no binding” and the “binding relative to WT” value [3] is reported as under 0.2 fold.

B14: Soluble ActRIIB-Fc K74I (Table 11) (Fc fusion, UniProt Q13705 19-119, looked up, not shown: a dimerising Fc or GST)
chain: B1 chain with K56I
In the case of B14, the binding result [2] is reported as “no binding” and the “binding relative to WT” value [3] is reported as under 0.2 fold.

B15: Soluble ActRIIB-Fc K74Y (Table 11) (Fc fusion, UniProt Q13705 19-119, looked up, not shown: a dimerising Fc or GST)
chain: B1 chain with K56Y
With B15 the binding result [2] was “no binding” and the “binding relative to WT” value [3] was under 0.2 fold.

B16: Soluble ActRIIB-Fc R56A (Table 11) (Fc fusion, UniProt Q13705 19-119, looked up, not shown: a dimerising Fc or GST)
chain: B1 chain with R38A
B16: no binding [1]; no binding [2].

B17: Soluble ActRIIB-Fc W78A (Table 11) (Fc fusion, UniProt Q13705 19-119, looked up, not shown: a dimerising Fc or GST)
chain: B1 chain with W60A
B17: no binding [1]; no binding [2].

B18: Soluble ActRIIB-Fc WT (64R) (Fc fusion, UniProt Q13705 19-119, looked up, not shown: a dimerising Fc or GST)
chain: B1 chain with A46R
notes: Whole entry named
For B18, the Kd [1] was 86 nM.

B19: ActRIIB(20-134)-hFc (Fc fusion)
chain: GRGEAETRECIYYNANWELERTNQSGLERCEGEQDKRLHCYASWRNSSGTIELVKKGCWLDDFNCYDRQECVATEENPQVYFCCCEGNFCNERFTHLPEAGGPEVTYEPPPTAPTGGGTHTCPPCPAPELLGGPSVFLFPPKPKDTLMISRTPEVTCVVVDVSHEDPEVKFNWYVDGVEVHNAKTKPREEQYNSTYRVVSVLTVLHQDWLNGKEYKCKVSNKALPVPIEKTISKAKGQPREPQVYTLPPSREEMTKNQVSLTCLVKGFYPSDIAVEWESNGQPENNYKTTPPVLDSDGSFFLYSKLTVDKSRWQQGNVFSCSVMHEALHNHYTQKSLSLSPGK
notes: also called ActRIIB-hFc
Work on B19 yielded a Kd [4] of 0.0842 nM, a koff [4] of 0.000113 s⁻¹ and a kon [4] of 1.34e+06 M⁻¹ s⁻¹. It also gave a Kd [5] of 0.0268 nM, a koff [5] of 0.000159 s⁻¹ and a kon [5] of 5.94e+06 M⁻¹ s⁻¹. For the same binder, the Kd [6] was 0.0935 nM and the koff [6] was 3.45e-05 s⁻¹.

B20: ActRIIB(A24N 20-134)-hFc (Fc fusion)
chain: B19 chain with A5N
With B20 the Kd [4] was 0.0519 nM, the koff [4] was 6.35e-05 s⁻¹ and the Kd [5] was 0.104 nM. For the same binder, the koff [5] was 0.000346 s⁻¹ and the kon [5] was 3.34e+06 M⁻¹ s⁻¹.

B21: ActRIIB(K74A 20-134)-hFc (Fc fusion)
chain: B19 chain with K55A
Work on B21 yielded a Kd [6] of 0.0718 nM and a koff [6] of 2.03e-05 s⁻¹.

B22: ActRIIB(L79D 20-134)-hFc (Fc fusion)
chain: B19 chain with L60D
In the case of B22, the Kd [4] is reported as 0.655 nM, the koff [4] is reported as 0.000439 s⁻¹ and the Kd [6] is reported as 2.15 nM. For the same binder, the koff [6] was 0.00083 s⁻¹.

B23: ActRIIB(L79E 20-134)-hFc (Fc fusion)
chain: B19 chain with L60E
Work on B23 yielded a Kd [4] of 0.716 nM, a koff [4] of 0.000274 s⁻¹ and a Kd [6] of 2.41 nM. For the same binder, the koff [6] was 0.0009 s⁻¹.

B24: ActRIIB(P129S, P130R 20-134)-hFc (Fc fusion)
chain: B19 chain with P110S, P111R
Work on B24 yielded a Kd [5] of 0.0831 nM, a koff [5] of 0.000417 s⁻¹ and a kon [5] of 5.02e+06 M⁻¹ s⁻¹. It also gave a Kd [6] of 1.67 nM and a koff [6] of 0.00018 s⁻¹.

B25: ActRIIB(R64K 20-134)-hFc (Fc fusion)
chain: B19 chain with R45K
B25 showed a Kd [4] of 0.0356 nM, a koff [4] of 2.41e-05 s⁻¹ and a Kd [5] of 0.0476 nM. It also gave a koff [5] of 0.000325 s⁻¹, a kon [5] of 6.82e+06 M⁻¹ s⁻¹ and a Kd [6] of 0.21 nM. The koff [6] was 4.71e-05 s⁻¹.

B26: ActRIIB(R64K 20-129)-hFc (Fc fusion)
chain: GRGEAETRECIYYNANWELERTNQSGLERCEGEQDKRLHCYASWKNSSGTIELVKKGCWLDDFNCYDRQECVATEENPQVYFCCCEGNFCNERFTHLPEAGGPEVTYEPPGGGTHTCPPCPAPELLGGPSVFLFPPKPKDTLMISRTPEVTCVVVDVSHEDPEVKFNWYVDGVEVHNAKTKPREEQYNSTYRVVSVLTVLHQDWLNGKEYKCKVSNKALPVPIEKTISKAKGQPREPQVYTLPPSREEMTKNQVSLTCLVKGFYPSDIAVEWESNGQPENNYKTTPPVLDSDGSFFLYSKLTVDKSRWQQGNVFSCSVMHEALHNHYTQKSLSLSPGK
B26 gave a Kd [5] of 0.0841 nM, a koff [5] of 0.000628 s⁻¹ and a kon [5] of 7.46e+06 M⁻¹ s⁻¹. For the same binder, the Kd [6] was 2.15 nM and the koff [6] was 0.000209 s⁻¹.

B27: Soluble ActRIIB-Fc +15tail (Fc fusion, UniProt Q13705 19-134, looked up)
chain: SGRGEAETRECIYYNANWELERTNQSGLERCEGEQDKRLHCYASWANSSGTIELVKKGCWLDDFNCYDRQECVATEENPQVYFCCCEGNFCNERFTHLPEAGGPEVTYEPPPTAPT
notes: not shown: linker and Fc
For B27, the Kd [2] was about 26 nM.
